A short description of the series: label from the status in PepcDB records.

In the case of “MDRRDYYVEYYEVLDRVLSDYVNQLREKREHWLKMGGHDVGVPLINLLFWQFTWHREEYDRLRKEGKSCGEALGSVKEILADKQVEEWERQEEEYKIYDHEWYEALAPYGGQLVIYIYNARQLVYLTPLIERLEEPVLLLSEYEIPDETELPDFVTAITLEFTKTVPLVNPFLKEWFPLIFQYANTFDILMRILQPKGLIFLEGCHYQQLLLATIGRDYGIPTLCIQQGWPSLMHTAFRRMPYRYYLMWGEGFRTLWEKHNPLPDFVPTGYMYQVEPRNETKKECVTFFLQGPFFLSDKRYLQEMIRLIGTVAAEFPARRFLVREHPEFRIGEEVRMEWEQIPNIEMVTDGKLAEVFARTRVGVAHYSSSLMEGVAHGAVPLVYDPTEGSRYSPDVEAEGLGMIAKTKEELTGGLSRILGNYEDFKQRIEKEQPLWFQATGEETLRNMVGFIKEKMPPVTLKEIYVVDTDTLTRERPVGVSGLLRCKNCEDFLEMCIDSCIDGLDELIAVYHDCTDRTPEILRQKAAQYPDKIRVFEYQPSVYPIDLDEEELEKAKLLPPDSIHTLAGYCNYALSKASYRYAVKIDADQVYFTDRLKHICDAYRSDKKVRFNVAECISYNLYRAYVDSFNRIEMRPFRWLERIALWTHASYASYLEKMIIRYKVPVSMSGINLFRKDREWMVGLGQEHPEPDSKEILPPFNGVRDTFFFEVSEDRIFRYMTETKLDGRHRGVEVMRCPNEILDVGFCWFHLRALMKEHEEGYRQSYRKHPERFIPLGTFVKLSYRNLQQRYKPFVAVRWAEPVFAYFFMTGKGRIPWKKLKEIE”, the protein production result is given as “failed”.

Consider “MDRSPERRTAVMIWGALVAGPALFLVVALALPLAGEPAPGIAQPLLLVLTGLVLVEVPLSWLWAVRARLAGKAGGEAISVEEQARTRLIIAAALCEGAALFAVVVFMVTRDARALPLFAIAFGALLAHYPGDRHWARLCRGSGAGSSAPPNRLMRG”, for which the protein production entry is “failed”.

With “MDSAAPDCTAKCRSLKHALDVLSVITKGSERQIKIFLSSYCYNAATVKDAFGRNALHLVSSCGKKAVLDWLIEKGVDLLHGVSLYMQDKEGLSPLDLLMKDRPAHVVFKNTDPTEVYTWGDNTNFTLGHGSQNSKHHPELLDLFSRSRVYVKQVVLCKFHSVFLSQQGQVYTCGHGRGGRLGHGDEQTCLVPRLVEGLSGHSCSQVAAAKDHTVVLTEDGCVYTFGLNTFHQLGIIPPPSSCNVPRQSRSSKHGHNSAQLQLIPGERQLNLKKVLVSGGCMEYKVDPEHLTENGGQKICILAMDGAGRVFCWRSLSSSLKQCRWAYPRQVSISDIALNRNEILFVTQDGEGFKGKWFEDKRKNSEKKADILPNLHHSSSDVSCVSDTNSVYERIRLEKLPFAHRAVSVSTDPSGCNFAILQSDPKTSLYEIPVVSSSSFFEEFGKLLRETDEMDSFHDVTFQVGNRLFPAHKYVLAVRSDFFQKLFLSDGTLLELTDVYRKDEDAAGCHLFVVEKVHPDLFEYLLQFMYTDTCDFLTHGFKPRMIMNKKSEDSKGSPESRLHAVNCHVDDKQKSAFEVYRSNQAHTLSERQKSKPKSSKKGKGVGEDDPVKMLQNVAKKFGLSNLSSRLDGVRYENEKINVIAKKTGNKLKLSQKKCSFLYDVTMKSVDGKEFPCHKCVLCARLEYFHSMLSRSWIEASSCAALEMPIQAEILKVILDYLYTDEAVVIKESQNVDFVCSVLVVADQLLITRLKEMCEVALAENLTLKNAAMLLEFASMYNAEQLKLSCLQFIGLNMAALLEARSLDVLSEDVLKDLSIFYRKMVPAMERRVITPYQDGPDISCVQAEDGEVFLKEEISLEPNHSPWLSSSLAASPAVAPVTFASIVEEERQQEAALIRSREKPLALIQVEEHAIQDLLVFYEAFGNPDEFVIVERTPQGPVAVPMWNKHGC”, the protein production result is “failed”.

As to “MDSAAVAFTTLDYVIFGVYLFVIVGLGLWVSQEEEGEEKDSADYFLASKALPFWAIGSSLIAANISAEQFIGMSGSGFRVGLAIASYEWMAAVTLLVIAWFFLPIYLEKEIYTMPQFLEERYDGRVRMLLAIFWLLVYVFVNLTSVLYMGGLSINVIMGFPLWASVLGLAAVATAYSLYGGLKAVAWTDVVQVVVLVGGGLLTTWVALDAYGGSEAGVVGGFTQLMGDASGRFNMILFEGELMYRNDEGALKDAYQLLPGLSVLFGGLWVANLFYWGCNQYIIQRALAAKSLKEAQRGLAFAGYLKLLLPLIVVVPGIVAFALDAPIQRGDEAYPWLLGEYVGSGFRGLAFAALVAAIISSLASMMNSASTIFTMDLYRNYTSREDVSERRLVRIGRAVALICIVVAAALAPQLADLDQVFQYIQEYTGFVSPGVLAIFVLGLFWSKATPNAALVSAVLSIPLSAAFKFWTPGVAFLNRMLIVFFISVALIVAISLLENEGEDHPKAIDVGGIERERDPIYNVAAFGILAITAALYAFFW”, the protein production entry is on record as “failed”.

For the sequence “MDSFKVVLEGPAPWGFRLQGGKDFNVPLSISRLTPGGKAAQAGVAVGDWVLSIDGENAGSLTHIEAQNKIRACGERLSLGLSRAQPAQSKPQKALTPPADPPRYTFAPSASLNKTARPFGAPPPTDSALSQNGQLLRQLVPDASKQRLMENTEDWRPRPGTGQSRSFRILAHLTGTEFMQDPDEEFMKKSSQVPRTEAPAPASTIPQESWPGPTTPSPTSRPPWAVDPAFAERYAPDKTSTVLTRHSQPATPTPLQNRTSIVQAAAGGGTGGGSNNGKTPVCHQCHKIIRGRYLVALGHAYHPEEFVCSQCGKVLEEGGFFEEKGAIFCPSCYDVRYAPSCAKCKKKITGEIMHALKMTWHVPCFTCAACKTPIRNRAFYMEEGAPYCERDYEKMFGTKCRGCDFKIDAGDRFLEALGFSWHDTCFVCAICQINLEGKTFYSKKDKPLCKSHAFSHV”, the protein production result is given as “failed”.

For the sequence “MDSFMESLNRLKEAHEKEVLGLQNKLLELNSERCRDAQRVEELFAKNHQLREQQKALKENLRVLENRLRAGLCDRCMVTQELARKKQLELENAHLQSLQHLCILTNEMNGLREENKILKEEVKRLRSLGDKTAPQAWEGTSEPPSPLPLPSPRQASGPP”, the protein production entry was “failed”.

Regarding “MDSGESGPQQWAGVVKVNDRMGYVTFTDAAGTELIPTNTIPVTLNARMAYIYCQVDEGQDLSTNPKSIKITLLADPTGIDATAITTPKVGESGDVTTNAPVGSLSFVSGYSTVAPFQFSENTIVLPVLYRVKNVTTTEDIKNELAKHTFTLVCYTDDIKSGDTILKLYLRYKVEDEPAAIAERATRTSSFKAYEISQILREYTLKSGQTKPAKITIVAQQNEYNNKLEDTSTIEKVYEIEYKTAE”, the protein production result is “not failed”.

Consider “MDSKEGKLTVIGEFDEMQILKKLKKRWESAKMATFGPFDPKKEAETAAAAEKKKKEENEREREREREEALYRSQSHHDTPVCPMHHHTTIVCDHDHGCIIS”, for which the protein production entry is “failed”.

“MDSKIDFSSYSLNDLYSSAESIDRDVYPERAKEIDGLIRQKEAEFPEEIDTTKDIGEKATKSDRLMAAIIDGVIGIISLVPVIFYVGFDSFKEPSLSLLGILFIYGVFVTMVLHGYLLYYYGQTIGKNYMSIRIENLDGTKASLATIYFKRMLPMQLIGLIPSFGQFISGIVNPLFIFGKQRRCLHDYLAKTKVSYTGT”: the protein production result is on record as “failed”.

For “MDSPIINEQFWDALFFNGTMPWDRSQTPNELKHYLKRIADKTHSVFIPGCGAAYEVSHFVDCGHDVIAMDYSAEAVNLAKSQLGQHQDKVMLGDVFNADFSREFDVIYERAFLAALPREIWGDYFAMIERLLPSNGLLVGYFVISDDYRSRFPPFCLRSGEIEQKLEANFHLIESTPVTDSVDVFKGKEQWMVWQKLEHHHHHH”, the protein production result is listed as “failed”.

In the case of “MDSYSITNVKYLDPTELHRWMQEGHTTTLREPFQVVDVRGSDYMGGHIKDGWHYAYSRLKQDPEYLRELKHRLLEKQADGRGALNVIFHCMLSQQRGPSAAMLLLRSLDTAELSRCRLWVLRGGFSRWQSVYGDDESVTAGYLPDLWR”, the protein production result is on record as “not failed”.

As to “MDTAEIEADQRALQHASVEGTTETPGNAQSSTNDDVIKATVDQIVAQILSESAERKATEEGKTGKAADDVKNTPESGEDANKAAAKEPSGTPVAASSEATVPAPGSASSSNSPLPGTPPKYSNPHNLTIGARLEALSVEGNWLPARIVEVNETEQTLLVRFERNHKLKVSPSTSGSFQEWMAIKSERLRQRLSNRVLPVFELDEKCMARWSGPRKFPGTIRKLLGNDTYEVLFDDGYVKNVRAVHMNKMPKQLPPVQVAEEGASKSPTPVGTPVSSAPVAPKRASTGSLGGSSGSSGSKKSKCAPQRRDWPLLDMASLDIASLGLPEIPHDGEWTCHWVNDQPIGTEGFLIVGEHQKPTVIVQDWRLPPGWIKHMYQRSNVLGKWDVILVSPSGKRFRSKSDLKLFLESQNLVYNPDVYDFSIHRRRAKDINAYVYTHGYNPQPPPKPRPMDVSMNSTLDQSITSQHSLPSTPMPVKESQYMEAPVASLMPPAELMSPQTQPADETKPKIEAEILEASEGGTSQLMLADPHVVENGFAFIGGLKVKIQDNLYVCPREDCAKTYRKEDFLLIHIRHYHKEFAEHVSHCPKMQELAVKRTHPSSIDQVEAVPKNQIPNQQFFAKMHQQDLQQSRSFKRQSVSATATSSTPSDITPTKALLSPKMEPPSVSPTVESGIKQEDVSLDAGPTQSFNPSLSRSCKRARLSPSKRPSGSRKSNRQRSQRRPILSDNPAGHGLTEQDVEETRQSFNTPTPDTRIDSKKRRSGAATTPISSIDSPAMGDSVSTPSSNDQTDINAALAPPPAETLSKAPQYIKENGELIRIVRMRQEEIINCICEYGEEDGLMIQCELCLCWQHGACNGIVKEADVPDKYVCYICRNPQRGRDSMRFKHDQDWLFEGKLPVAAYHTANPQATKQFELLKRSHTLTGNLLDAKRSMHSLLVKINIARNRCHPKLYLWAKKWDEDNLDSTALTPVKRAKLEAPDLPNVPQPEAAIDPEECQYRLIEHIKVQQSLVLDRLNDIEAEMDELEKEDTLDDLKDADISTTKEALATFIKELETMKRLAKLNQVANMKQTLRDSATSK”, the protein production result is given as “failed”.

Consider “MDTAKTKPFDEMFLQDEVIRPIYAEYAAWLQDVPHQQLESKRQEAELLFRRVGITFNVYGEDAGAERLIPFDVVPRILSASEWARLSDGAIQRVKALNMFLHDVYHDQEIIKAGIVPSSILANAQYRPEMFGVDVPGGVYAHIAGVDLVRTGENDFYVLEDNLRTPSGVSYMLENRKMMMRLFPELFRRYPVAPVEHYPQVLLNNLRAVAQAGVHEPTVVLLTPGAYNSAYFEHAFIAQQMGIELVEGQDLFVRNNAVYMRTTEGPKRVDVIYRRIDDDFIDPLSFRPDSMLGVPGLLSVYRNGGVTLANAVGTGVADDKDTYIYVPEMIRFYLGEEPILSNVPTYQLSKADDLKYVLDNLAELVVKEVQGSGGYGMLVGPAASKQELEDFRQRILANPANYIAQPTLALSTCPTLVETGIAPRHVDLRPFVLSGKTVSLVPGALCRVALREGSLVVNSSQGGGTKDTWILKD”, for which the protein production result was “not failed”.

As to “MDTGDKEAGEQIVCKPSFFRVSDNHHHPSRAGCPLHQGQARTGSGSPRGQVAGAEKGGDEGGRRGSGGGSSEPRDRRRREQPRAAGDEDGSAGRAHGAQGHGHGGVCGARSQRPALLKPGSRRARGAGGGRMERKGLAARASGNPSPPALGEGPRPGPPPCVPSGGGAPERGQAGAAAEPAELIRRAHEFKSQGAQCYKDKKFREAIGKYHRALLELKGLLPPPGERERDARPASPAGIPKASRLSEEQSKTVEAIEIDCYNSLAACLLQAELVNYERVKEYCLKVLKKEGENFKALYRAGVAFYHLGDYDKALYYLKEARTRQPSDTNVIRYIQLTEMKLSRCSQREKEAM”, the protein production result is listed as “failed”.

Turning to “MDTGPDQSYFSGNHWFVFSVYLLTFLVGLPLNLLALVVFVGKLRCRPVAVDVLLLNLTASDLLLLLFLPFRMVEAANGMHWPLPFILCPLSGFIFFTTIYLTALFLAAVSIERFLSVAHPLWYKTRPRLGQAGLVSVACWLLASAHCSVVYVIEFSGDISHSQGTNGTCYLEFWKDQLAILLPVRLEMAVVLFVVPLIITSYCYSRLVWILGRGGSHRRQRRVAGLVAATLLNFLVCFGPYNVSHVVGYICGESPVWRIYVTLLSTLNSCVDPFVYYFSSSGFQADFHELLRRLCGLWGQWQQESSMELKEQKGGEEQRADRPAERKTSEHSQGCGTGGQVACAEN”, the protein production result is on record as “failed”.

Values taken from a protein production outcome set (Wang et al. 2014).
